One molecule from patent US9657092B2, “S100A4 antibodies and therapeutic uses thereof” (LYKERA BIOMED SA, priority 2010, dated 2017) can be followed below.

Several values for one entry are separate records, joined by “and”; a condition that tells them apart may be missing. Equal entries are not always repeated.

The target in one data set is T1, Human S100A6 (Homo sapiens, UniProt P06703).
T1 construct: purchased Abnova
In words: ELISA specificity (reaction pattern of mAb). Details: key: ++++ positive reaction; − no reaction. The data set is classed as binding. In general terms: In an ELISA, binding on a coated surface is turned into a signal by an enzyme label.

The subject of data set [1] is circulant S100A4 protein in plasma. Briefly: Plasma quantification of S100A4 by sandwich ELISA in xenograft tumor models. Type of data set: in vivo, athymic mice. Particulars: MiaPACA-2 and HCT116 xenograft tumor model, end of experiment. Here is the method:
Plasma levels of S100A4 were quantified by sandwich ELISA method. […] After removing the coating, plates were washed twice with PBS and incubated 1 h at 37° C. in blocking buffer (PBS containing 1% of skimmed milk).
Plasma samples diluted 1:4 in dilution buffer (PBS-4% BSA) were applied to the wells (100 μl/well) and were incubated 2 h at 37° C. Plates were washed eight times with washing buffer (PBS-0.1% of Tween-20) and Rabbit polyclonal anti-S100A4 secondary antibody (Dako) at the appropriate dilution was applied to the wells (100 μl/well) and were incubated for 1 h at 37° C.
Plates were washed eight times with washing buffer and Goat anti-Rabbit-IgG-peroxidase conjugated (Sigma) at the appropriate dilution was added to each well (100 μl/well) and were incubated 1 h at 37° C. […] Absorbance was ridden at 450 nm.
Standard curve for basal plasma samples (animals without tumor), was obtained by serial dilutions of murine recombinant S100A4 in dilution buffer. Standard curve for final plasma samples (animals with tumor at the end of the experiment) was obtained by serial dilutions of human recombinant S100A4 in dilution buffer.

In data set [2] the test system is MiaPACA-2 tumors microvasculature. Briefly: Tumor microvasculature quantification by CD31 immunostaining. Type of data set: in vivo, nude mice. The procedure: Tumors from MiaPACA-2 xenograft tumor model were OCT (Tissue-Tek®, Sakura) embedded and frozen. One cryosection (5 μm) corresponding to the central part of each tumor was analyzed. Sections were fixed in acetone/chloroform (1:1) at −20° C. for 5 min, were dried over night at room temperature, washed with PBS and treated for 10 min at 4° C. in a dark chamber with H2O2 (0.03%) in PBS. Then, sections were washed with PBS and blocked for 20 min at 4° C. using PBS-BSA (2%) plus rabbit serum (5%) (Vector) and with Avidin-biotin blocking solution (Dako) for 10 min each one at 4° C. Samples were incubated for 1 hour at room temperature with primary antibody; a monoclonal rat anti-mouse antibody directed against CD31 (dil 1:200, BD PharMingen) diluted in blocking buffer. After incubation sections were incubated with a polyclonal biotinylated anti-rat antibody as secondary antibody (dil 1:500, Vector) for 30 min at room temperature and were incubated with the ABC reagent (Pierce) for 30 min at room temperature. Finally, sections were incubated with NovaRed (Vector) for 20 min at 4° C., stained with hematoxilin Harris (Sigma) for 10 seconds and mounted using DPX non aqueous mounting medium (Sigma).
Angiogenesis quantification was measured using two criteria:
8 and 39 pictures per slice, depending on the size of tumours, were taken and analyzed using the NIH ImageJ imaging software.
Comparisons between groups were made using the two-tailed nonparametric Mann Whitney U test. Differences for which P value was less than 0.05 were considered statistically significant.
The inventors investigated whether the 5C3 would actually affect tumor angiogenesis in vivo. The evaluation of tumor angiogenesis was made based on the CD31 immunostaining and two analytics approximations: MicroVessel Density (M.V.D.) and the fractional area of vessels (A.A.).

The target in another data set is T2, murine S100A4 (Mus musculus, UniProt P07091).
T2 construct: total extracts from tumor cell lines of different origins and the mouse embryonic fibroblast cell line NIH3T3; endogenous in cells; host or cells: NIH-3T3 mouse fibroblasts
T2 sequence (P07091 whole entry): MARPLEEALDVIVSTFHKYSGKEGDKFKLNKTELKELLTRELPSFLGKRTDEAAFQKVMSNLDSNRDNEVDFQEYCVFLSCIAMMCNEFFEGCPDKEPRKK
Briefly: Western-blot of NIH-3T3 mouse fibroblast extract. The data set is classed as binding. The procedure: Cell and tumors samples were rinsed twice with PBS and immediately lysed with ice cold Cell Lysis Buffer (150 mM NaCl, 1% IGEPAL CA630, 5 mM EDTA, 100 μg/mL PMSF, 1 mM Na3VO4, 1 mM NaF and 50 mM Tris pH 7.4). Lysates were cleared by centrifugation and the protein concentration was quantified with the Bradford reagent (Bio-Rad). Total extracts (50 μg) were resolved in a 12% SDS-polyacrilamide gel (PAGE) electrophoresis under reduced conditions and transferred to BioTrace™ PVDF membranes (PALL corporation). Membranes were blocked for 1 hour in TBS plus 0.1% Tween-20 with 5% skimmed dried milk, incubated overnight with the relevant primary antibody and then with the secondary antibodies for 1 hour in blocking buffer, washing three times for 10 min in TBS plus 0.1% Tween-20 after each incubation. Signals were developed using the ECL™ Western Blotting Detection Reagents (Amersham) and exposed to Hyperfilm™ ECL (Amersham).

A further data set concerns MiaPACA-2 tumors. Briefly: MiaPACA-2 subcutaneous xenograft tumor development. Type of data set: in vivo, nude mice. Particulars: MiaPACA-2, end of experiment (day 30). Here is the method: MiaPACA-2 human pancreatic adenocarcinoma cell line and HCT116 human colorectal adenocarcinoma cell line in exponential growth were harvested with trypsin-EDTA (0.05%/0.02%) (Invitrogen), washed, and examined for viability by trypan blue dye exclusion. Viability was greater than 95%. For primary tumor growth, cells (either 5×10^6 or 1×10^6 cells for MiaPACA-2 or HCT116 respectively in 0.1 mL DMEM high glucose) were subcutaneously injected into the flanks of nude mice. Tumor volumes between 65-160 mm^3 for MiaPACA-2 and volumes between 155-370 mm^3 for HCT116 were used to divide the mice into two groups of either ten mice each (MiaPACA-2) or seven mice each (HCT116), such that the mean tumor size was equal between groups (approximately 100 mm^3 for MiaPACA-2 or 220 mm^3 for HCT116). Tumor growth was followed by measuring tumor diameters with calipers and the tumor volume was calculated using an approximated formula for a prolate ellipsoid: volume=(D×d^2)/2 where D is the longest axis of the tumor and d the shortest. Mice were treated either with vehicle (PBS) or with the antibody, i.p. three times per week at 25 mg/Kg/100 μL of sterile PBS, starting the treatment at defined tumor volume (100 mm^3 and 220 mm^3). […]

The nature of data set [3]: Body weight and adverse side effects in xenograft experiments. Type of data set: in vivo.
[4] abbreviates: group G2, MiaPACA-2 tumors, day 30.
Setting [5] is: individual animal of G2 (5C3 treatment group), MiaPACA-2 tumor, day 30.
The mark [6] stands for this setting: 25 mg/kg i.p. three times a week.

B1: 5C3: mouse monoclonal anti-S100A4 antibody, IgG1, from hybridoma ECACC 10022401; VL SEQ ID NO: 1, VH SEQ ID NO: 2 (antibody, V domains shown)
VH: EAQLQQSGAELVKPGASVKLSCTASGFNIQETYMHWVKQRPEQGLEWIGRIDPANGNTKDDPKFQGKASITVDTSSNTAYLQLSSLTSEDTAVYYCASSYAMDYWGQGTSVTVSS
VL: DVLMTQTPLSLPVSLGDQASISCRSSQSIVHSNGNTYLEWYLQKTGQSPELLIYKVSNRLSGVPDRFSGSGSGTDFTLKISRVEAEDLGVYYCFQGSHVPFTFGSGTKLEIK
modifications: VH region of the 5C3 monoclonal antibody; VL region of the 5C3 monoclonal antibody
Take B1: the “Reaction Pattern of mAb in ELISA, Human S100A6” value with Human S100A6 is “−”. In addition, the “S100A4 protein levels in plasma of treated animals (unbound to 5C3)” value in data set [1] is recorded as “blocks the totality of circulant S100A4 protein in plasma”. In data set [2] (MiaPACA-2 tumors), the “reduction in microvessel density compared with control group (vehicle)” value was “approximately 40%” and the “reduction of the section area occupied by vessels compared with control group (vehicle)” value is on record as ~30%. In data set [2] (setting [4]), the “AA (%) Mean” value is listed as 0.69%, the “AA (%) Median” value was found to be 0.59%, the “MVD (v.p./mm^2) Mean” value is listed as 27.42 v.p./mm^2 and the “MVD (v.p./mm^2) Median” value is given as 26.45 v.p./mm^2. Besides, in data set [2] (setting [5]), the “% A.A. (Fractional area of vessels)” value is 1.14% and 1.26% and 0.53% (2×) and 0.41% and 0.66% and 0.72% and 0.32%; the “M.V.D. (MicroVascular Density)” value is 31.55 v.p./mm^2 and 44.37 v.p./mm^2 and 20.23 v.p./mm^2 and 16.81 v.p./mm^2 and 29.84 v.p./mm^2 and 36.23 v.p./mm^2 and 17.31 v.p./mm^2 and 23.05 v.p./mm^2; the No of vessels is 514 and 460 and 240 and 203 and 440 and 426 and 158 and 174. For the same molecule, in the data set with murine S100A4, the “reaction with murine S100A4 in Western-blot” value was “also with murine S100A4”. The “tumor weight compared with the control group” value in the data set on MiaPACA-2 tumors is given as “statistically significant decrease”. In addition, in data set [3] (setting [6]), the “adverse side effects (motor incoordination, paralysis, ataxia, convulsions, diarrhoea, cachexia, erythema, hypothermia, mortality)” value is given as “did not observe adverse side effects”; the body weight loss result is reported as “No body weight loss”; the “macroscopic analyses of organs” value is “did not evidence abnormalities in organs”. Moreover, the tolerability result in data set [3] (25 mg/kg, three times a week up to the end of experiment) is “well-tolerated”.
